The numbers were not newly measured in PMC12521419, which cites them from elsewhere.

A word on the Kd: it is the constant that tells how readily two partners part at equilibrium.

Data set [1] concerns LMBV virion (largemouth bass virus particle; binding protein not identified) (Largemouth bass virus (genus Ranavirus, family Iridoviridae), isolated from diseased largemouth bass, propagated in FHM cells). Kind of data set: not stated for truncated form (ELASA stated for parent LA13). As to conditions: PBS, aptamers 500 nM each with LMBV in 100 uL for 1 h (temperature not stated); streptavidin beads 4 C 30 min; washes PBS + 0.1% Tween-20; SDA 37 C 30 min ….

The test system is the same in data set [2]. Kind of data set: not stated for truncated form (ELASA stated for parent LA38). As to conditions: PBS, aptamers 500 nM each with LMBV in 100 uL for 1 h (temperature not stated); streptavidin beads 4 C 30 min; washes PBS + 0.1% Tween-20; SDA 37 C 30 min ….

Consider “TTTTGACGCTTTATCCTTTTCTTATGGCGGGATAGTTTCG [LA13s]”, for which the Kd in data set [1] was 2.34 nM.
In the case of “GCCGGCCCGGGGGATAGAGTGCTCCCGATCCCTTGGCGAAGGGAC [LA38s]”, in data set [2], the Kd was 3.42 nM.
